# Experimental data from paper PMC4716839 (eLife, 2015).
# T1: mouse Rpa70N (residues 1–122) (mouse, UniProt Q8VEE4 1-122)
# T1 construct: Rpa70, mouse, residues 1-122 (OBN domain); also called Rpa70N polypeptide; not shown: His6-SUMO, N-terminal, cleaved
# T1 sequence (looked up): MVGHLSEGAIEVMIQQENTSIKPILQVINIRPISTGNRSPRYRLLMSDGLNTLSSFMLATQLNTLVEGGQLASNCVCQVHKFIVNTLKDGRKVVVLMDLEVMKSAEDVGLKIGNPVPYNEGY
# B1: GST-tagged mouse Dna2 α1OB (α1 helix and OB domain, residues 1 to 122) (domain or fragment, UniProt Q6ZQJ5 1-122, looked up)
# chain: MEPLDELDLLLLEEDGGAEAVPRVELLRKKADALFPETVLSRGVDNRYLVLAVETSQNERGAEEKRLHVTASQDREHEVLCILRNGWSSVPVEPGDIVHLEGDCTSEPWIIDDDFGYFILYP
# notes: Dna2 nuclease-helicase, mouse, residues 1-122 (α1 helix and OB domain); full-length mouse Dna2 has residues 1 to 1062; Cloned into a pGEX-4T vector; also called GST-α1OB
# B2: mouse Rpa heterotrimer (Rpa70, Rpa32, Rpa14) (complex)
# chain 1: MVGHLSEGAIEVMIQQENTSIKPILQVINIRPISTGNRSPRYRLLMSDGLNTLSSFMLATQLNTLVEGGQLASNCVCQVHKFIVNTLKDGRKVVVLMDLEVMKSAEDVGLKIGNPVPYNEGYGQQQQQQQQQQQQAVPSPASAATPPASKPQPQNGSLGMGSTAAKAYGASKPFGKPAGTGLLQPSGGTQSKVVPIASLTPYQSKWTICARVTNKSQIRTWSNSRGEGKLFSLELVDESGEIRATAFNEQVDKFFPLIEVNKVYYFSKGALKIANKQFSAVKNDYEMTFNNETSVLPCEDGHHLPTVQFDFTGIGDLESKAKDALVDIIGICKSYEDSIKITVKSNNREVAKRNIYLMDMSGKVVTTTLWGEDADKFDGSRQPVMAIKGARVSDFGGRSLSVLSSSTVIVNPDIPEAYKLRGWFDSEGQALDGVSISDHRSGGAGGGNTNWKTLHEAKSENLGQGDKADYFSTVAAVVFLRKENCMYQACPTQDCNKKVIDQQNGLYRCEKCDREFPNFKYRMILSANIADFQENQWVTCFQESAEAILGQNTMYLGELKEKNEQAFEEVFQNANFRSFTFRIRVKLETYNDESRIKATVMDVKPVDFRDYGRRLIANIRKNM
# chain 2: MWNSGFESFSSSTYGGAGGYTQSPGGFGSPTPSQAEKKSRVRAQHIVPCTISQLLSATLTDEVFRIGDVEISQVTIVGIIRHAEKAPTNIVYKIDDMTAPPMDVRQWVDTDDASGENAVVPPETYVKVAGHLRSFQNKKSLVAFKIIPLEDMNEFTAHILEVVNSHMMLSKPNSQASAGRPSMSNPGMSEPGNFSGNNFMPANGLTVVQNQVLNLIKACPRPEGLNFQDLRSQLQHMPVPSIKQAVDFLCNEGHIYSTVDDDHFKSTDAE
# chain 3: MEDIMQLPKARVNASMLPQYIDRPVCFVGKLEKIHPTGKMFILSDGEGKNGTIELMEPLDEEISGIVEVVGKVTAKATVLCASYTLFKEDTNRFDLELYNEAVKIINELPQFFPVGLPQHE
# notes: Rpa70 subunit of Replication Protein A, mouse; Rpa32 subunit of Replication Protein A, mouse; Rpa14 subunit of Replication Protein A, mouse; The GST tag on Rpa32 is called cleavable; also called heterotrimeric Rpa; full-length Rpa; source: Hi-5 insect cells co-infected with two baculoviruses, purified as described (Fan and Pavletich, 2012); copies: + +
# Columns and labels:
# Details in all cases: both partners purified
# [1] = target: T2, human Rpa70NAB (residues 1–422) (human, UniProt P27694 1-422); test: ITC; MicroCal ITC200, 20°C, 20 mM HEPES, 80 mM NaCl, 0.2 mM TCEP, pH 7.5; human polypeptides
# T2 construct: Rpa70, human, residues 1-422 (OBN, DBD-A, DBD-B); source: E. coli BL21DE3, purified
# [2] = target: B2; test: pull-down; GST-tagged mouse Dna2 fragment or GST (30 μM in Figure 4A) with an equal molar amount of Rpa or Rpa fragment; 20 mM Tris-HCl, 80 mM NaCl, 0.3 mM TCEP, 2% glycerol, pH 8.0, 4°C, 30 min, then glutathione beads; eluted with 20 mM glutathione, SDS-PAGE
# [3] = target: T3, mouse Rpa70NAB (Rpa70 fragment with the OBN, DBD-A and DBD-B domains, residues 1 to 431) (mouse, UniProt Q8VEE4 1-431); test: as above
# T3 construct: Rpa70, mouse, residues 1-431 (OBN, DBD-A, DBD-B); not shown: His6-SUMO, N-terminal, cleaved
# [4] = target: B1; test: pull-down; GST pull-down as a1 with (dT)24 or (dT)8 ssDNA added; concentrations shown in the figure; bound Rpa70 quantified relative to the lane without DNA
# [5] = target: T1, mouse Rpa70N (residues 1–122); test: pull-down; GST-tagged mouse Dna2 fragment or GST (30 μM in Figure 4A) with an equal molar amount of Rpa or Rpa fragment; 20 mM Tris-HCl, 80 mM NaCl, 0.3 mM TCEP, 2% glycerol, pH 8.0, 4°C, 30 min, then glutathione beads; eluted with 20 mM glutathione, SDS-PAGE
# [6] = target: T4, mouse Rpa70AB (residues 191–431) (mouse, UniProt Q8VEE4 191-431); test: as above
# T4 construct: Rpa70, mouse, residues 191-431 (DBD-A and DBD-B); also called Rpa70AB polypeptide; not shown: His6-SUMO, N-terminal, cleaved
# [7] = target: T5, human Rpa70N (OBN domain of Rpa70, residues 1–120) (human, UniProt P27694 1-120); test: ITC; MicroCal ITC200, 20°C, 20 mM HEPES, 80 mM NaCl, 0.2 mM TCEP, pH 7.5; human polypeptides
# T5 construct: Rpa70, human, residues 1-120 (OBN domain); Used in ITC and in the co-crystals; also called Rpa70 OBN; RPA70 OBN; source: E. coli BL21DE3, purified
# T5 sequence (P27694 1-120): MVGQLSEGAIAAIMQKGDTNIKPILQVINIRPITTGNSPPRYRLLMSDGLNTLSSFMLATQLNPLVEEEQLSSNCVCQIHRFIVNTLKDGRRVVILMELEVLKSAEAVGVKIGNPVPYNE
# T2 sequence (P27694 1-422): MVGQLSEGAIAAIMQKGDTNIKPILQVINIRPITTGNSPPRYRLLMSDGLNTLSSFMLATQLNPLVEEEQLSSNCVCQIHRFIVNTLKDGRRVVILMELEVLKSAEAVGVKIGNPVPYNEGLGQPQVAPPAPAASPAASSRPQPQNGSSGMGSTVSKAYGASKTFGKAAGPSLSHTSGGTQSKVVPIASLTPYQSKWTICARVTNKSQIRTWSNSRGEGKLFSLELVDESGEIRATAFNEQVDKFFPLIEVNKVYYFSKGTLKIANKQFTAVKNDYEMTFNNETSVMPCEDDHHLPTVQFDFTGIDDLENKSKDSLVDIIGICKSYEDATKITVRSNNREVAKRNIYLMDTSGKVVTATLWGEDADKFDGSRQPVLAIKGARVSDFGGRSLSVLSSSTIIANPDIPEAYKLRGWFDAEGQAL
binder,measurement,setting,value
"human Dna2 α1OB (residues 1–122) (domain or fragment, UniProt P51530 1-122, looked up, Dna2, human, residues 1-122 (α1 helix and OB domain); source: E. coli BL21DE3, purified) MEQLNELELLMEKSFWEEAELPAELFQKKVVASFPRTVLSTGMDNRYLVLAVNTVQNKEGNCEKRLVITASQSLENKELCILRNDWCSVPVEPGDIIHLEGDCTSDTWIIDKDFGYLILYPD",Kd,[1],12 ± 1 µM
B1,binding result,[2],binds
same,binding result,[3],binds
B2,fold reduction of bound Rpa by one molar equivalent of (dT)24 ssDNA,[4],~4 fold
"MEPLDELDLLLLEEDGGAEA (peptide, UniProt Q6ZQJ5 1-20, looked up, Dna2, mouse, residues 1-20 (α1 helix); Cloned into a pGEX-4T vector; also called GST-α1) [GST-tagged mouse Dna2 α1 (residues 1–20)]",binding result,[5],binds
"GST-tagged mouse Dna2 OB (residues 21–122) (domain or fragment, UniProt Q6ZQJ5 21-122, looked up, Dna2, mouse, residues 21-122 (OB domain); Cloned into a pGEX-4T vector; also called GST-OB) VPRVELLRKKADALFPETVLSRGVDNRYLVLAVETSQNERGAEEKRLHVTASQDREHEVLCILRNGWSSVPVEPGDIVHLEGDCTSEPWIIDDDFGYFILYP",binding result,[6],binds
"MEQLNELELLMEKSFWEEAE (peptide, UniProt P51530 1-20, looked up, Dna2, human, residues 1-20 (α1 helix); also called Dna2 α1 helix; source: E. coli BL21DE3, purified) [human Dna2 α1 (residues 1–20), polypeptide used in ITC]",Kd,[7],34 ± 7 µM
